Data on 25 molecules can be found in patent US20240400638A1, “COMBINATION OF RELAXIN AND VASOPRESSIN ANALOGUES FOR TREATMENT OF RENAL DISORDERS OR CONDITIONS” (River 2 Renal Corp., priority 2021, published 2024).

Numbered stars: 1 amine (or outer) side, 2 acyl side, 3 side chain; on linkers, the order of the positions; unused ones are H or OH. Square brackets hold non-standard residues; d marks the D form. Side chains are listed from the residue outwards. * marks the point of attachment. TTDS = 4-[3-[2-[2-(3-aminopropoxy)ethoxy]ethoxy]propylamino]-4-oxo-butanoyl; γGlu = O=C(O)[C@H](CCC(=O)[*:2])N[*:1]; Stearoyl = CCCCCCCCCCCCCCCCCC(=O)*; Palmitoyl = CCCCCCCCCCCCCCCC(=O)*; αMeK = C[C@](N)(CCCCN)C(=O)O; AEEA = NCCOCCOCC(=O)O; Aib = CC(C)(N)C(=O)O

This experiment deals with T1, human RXFP1 (human, UniProt Q9HBX9 1-757).
T1 sequence (looked up): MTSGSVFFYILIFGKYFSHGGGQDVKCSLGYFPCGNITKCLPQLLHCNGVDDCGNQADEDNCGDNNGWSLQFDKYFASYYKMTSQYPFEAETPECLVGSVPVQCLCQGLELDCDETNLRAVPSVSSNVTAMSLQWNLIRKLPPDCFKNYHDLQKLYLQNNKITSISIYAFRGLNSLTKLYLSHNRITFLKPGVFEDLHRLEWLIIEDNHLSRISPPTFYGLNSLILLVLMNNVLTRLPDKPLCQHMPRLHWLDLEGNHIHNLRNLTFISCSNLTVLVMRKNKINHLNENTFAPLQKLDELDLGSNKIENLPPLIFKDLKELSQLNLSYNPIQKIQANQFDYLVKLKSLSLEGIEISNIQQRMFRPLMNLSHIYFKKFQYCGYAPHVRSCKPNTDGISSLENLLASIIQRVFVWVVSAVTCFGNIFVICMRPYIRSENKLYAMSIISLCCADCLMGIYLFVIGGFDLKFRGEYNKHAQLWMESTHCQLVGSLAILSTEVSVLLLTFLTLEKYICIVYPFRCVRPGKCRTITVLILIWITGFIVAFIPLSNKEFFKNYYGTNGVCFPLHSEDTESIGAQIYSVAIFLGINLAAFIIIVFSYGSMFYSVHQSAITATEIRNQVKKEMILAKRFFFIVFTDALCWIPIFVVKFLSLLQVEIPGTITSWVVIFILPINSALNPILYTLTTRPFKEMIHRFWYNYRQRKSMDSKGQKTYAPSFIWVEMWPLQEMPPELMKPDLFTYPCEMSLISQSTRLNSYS
Put plainly: cell-based or functional assay.

With Ac-LEGRERVRAK(Ac)I[Aib][Aib]EGK([TTDS-TTDS-TTDS-γGlu-γGlu-γGlu-Palmitoyl])STWS[Aib]RKK(Ac)-NH2 [Relaxin peptide analogue of SEQ ID NO: 67], the “EC50 (nM), OVCAR 5 cells (cAMP)” value was 0.48 nM and the “EMax, OVCAR 5 cells (cAMP)” value is 95%.

Consider Ac-LEGREKVRAK(Ac)I[Aib][Aib]EGK([TTDS-TTDS-TTDS-TTDS-γGlu-γGlu-γGlu-Stearoyl])STFS[Aib]RKK(Ac)-NH2 [Relaxin peptide analogue of SEQ ID NO: 59], for which the “EC50 (nM), OVCAR 5 cells (cAMP)” value turned out to be 0.09 nM and the “EMax, OVCAR 5 cells (cAMP)” value is 99%.

Ac-LEGREKVRAK(Ac)I[Aib][Aib]EGK([TTDS-TTDS-TTDS-γGlu-γGlu-γGlu-Palmitoyl])SQWS[Aib]RKK(Ac)-NH2 [Relaxin peptide analogue of SEQ ID NO: 63]: the “EC50 (nM), OVCAR 5 cells (cAMP)” value was found to be 1.45 nM and the “EMax, OVCAR 5 cells (cAMP)” value is 97%.

Ac-LEGREKVRAK(Ac)I[Aib][Aib]EGK([TTDS-TTDS-TTDS-γGlu-γGlu-γGlu-Palmitoyl])SKWS[Aib]RAK-NH2 [Relaxin peptide analogue of SEQ ID NO: 73]: the “EC50 (nM), OVCAR 5 cells (cAMP)” value was 0.2 nM and the “EMax, OVCAR 5 cells (cAMP)” value came to 95%.

Consider Ac-LEGREKVRK(Ac)QI[Aib][Aib]EGK([TTDS-TTDS-TTDS-γGlu-γGlu-γGlu-Palmitoyl])STWS[Aib]RKK(Ac)-NH2 [Relaxin peptide analogue of SEQ ID NO: 65], for which the “EC50 (nM), OVCAR 5 cells (cAMP)” value turned out to be 1.19 nM and the “EMax, OVCAR 5 cells (cAMP)” value came out at 95%.

On to Ac-LEGREKVRAK(Ac)I[Aib][Aib]EGK([TTDS-TTDS-TTDS-γGlu-γGlu-γGlu-Palmitoyl])SRWS[Aib]RKK(Ac)-NH2 [Relaxin peptide analogue of SEQ ID NO: 64], for which the “EC50 (nM), OVCAR 5 cells (cAMP)” value turned out to be 0.52 nM and the “EMax, OVCAR 5 cells (cAMP)” value turned out to be 95%.

Ac-LEGREKVRAK(Ac)I[Aib][Aib]EGK([TTDS-TTDS-TTDS-γGlu-γGlu-γGlu-γGlu-Palmitoyl])STWS[Aib]RKK(Ac)-NH2 [Relaxin peptide analogue of SEQ ID NO: 62]: the “EC50 (nM), OVCAR 5 cells (cAMP)” value worked out at 0.6 nM and the “EMax, OVCAR 5 cells (cAMP)” value amounted to 98%.

Take Ac-LEGREKVRAK(Ac)I[Aib][Aib]EGK([TTDS-TTDS-TTDS-γGlu-γGlu-γGlu-Palmitoyl])STWS[Aib]RAK-NH2 [Relaxin peptide analogue of SEQ ID NO: 71]: the “EC50 (nM), OVCAR 5 cells (cAMP)” value stood at 0.36 nM and the “EMax, OVCAR 5 cells (cAMP)” value came to 95%.

As to Ac-LEGREKVRAK(Ac)I[Aib][Aib]EGK([TTDS-TTDS-TTDS-γGlu-γGlu-γGlu-Palmitoyl])STWS[Aib]RK(Ac)K-NH2 [Relaxin peptide analogue of SEQ ID NO: 68], the “EC50 (nM), OVCAR 5 cells (cAMP)” value worked out at 0.88 nM and the “EMax, OVCAR 5 cells (cAMP)” value amounted to 98%.

B1: Relaxin peptide analogue of SEQ ID NO: 5 (peptide)
peptide: Ac-LEGREKVRAK(Ac)I[Aib][Aib]EGK([AEEA-AEEA-AEEA-AEEA-γGlu-γGlu-γGlu-Palmitoyl])STWS[Aib]RKK(Ac)-NH2
SMILES: CCCCCCCCCCCCCCCC(=O)N[C@@H](CCC(=O)N[C@@H](CCC(=O)N[C@@H](CCC(=O)NCCOCCOCC(=O)NCCOCCOCC(=O)NCCOCCOCC(=O)NCCOCCOCC(=O)NCCCC[C@H](NC(=O)CNC(=O)[C@H](CCC(=O)O)NC(=O)C(C)(C)NC(=O)C(C)(C)NC(=O)[C@@H](NC(=O)[C@H](CCCCNC(C)=O)NC(=O)[C@H](C)NC(=O)[C@H](CCCNC(=N)N)NC(=O)[C@@H](NC(=O)[C@H](CCCCN)NC(=O)[C@H](CCC(=O)O)NC(=O)[C@H](CCCNC(=N)N)NC(=O)CNC(=O)[C@H](CCC(=O)O)NC(=O)[C@H](CC(C)C)NC(C)=O)C(C)C)[C@@H](C)CC)C(=O)N[C@@H](CO)C(=O)N[C@H](C(=O)N[C@@H](Cc1c[nH]c2ccccc12)C(=O)N[C@@H](CO)C(=O)NC(C)(C)C(=O)N[C@@H](CCCNC(=N)N)C(=O)N[C@@H](CCCCN)C(=O)N[C@@H](CCCCNC(C)=O)C(N)=O)[C@@H](C)O)C(=O)O)C(=O)O)C(=O)O
Consider B1, for which the “EC50 (nM), OVCAR 5 cells (cAMP)” value amounted to 9.1 nM and the “EMax, OVCAR 5 cells (cAMP)” value is 85%.

Take Ac-LEGREKVRAK(Ac)I[Aib][Aib]EGK([TTDS-TTDS-TTDS-γGlu-γGlu-γGlu-Stearoyl])STFS[Aib]RKK(Ac)-NH2 [Relaxin peptide analogue of SEQ ID NO: 61]: the “EC50 (nM), OVCAR 5 cells (cAMP)” value turned out to be 0.1 nM and the “EMax, OVCAR 5 cells (cAMP)” value came out at 97%.

Ac-LEGREKVRAK(Ac)I[Aib][Aib]EGK([TTDS-TTDS-γGlu-γGlu-γGlu-Stearoyl])STWS[Aib]RKK(Ac)-NH2 [Relaxin peptide analogue of SEQ ID NO: 6]: the “EC50 (nM), OVCAR 5 cells (cAMP)” value was 0.27 nM and the “EMax, OVCAR 5 cells (cAMP)” value came out at 95%.

On to Ac-LEGREKVRAK(Ac)I[Aib][Aib]EGK([TTDS-TTDS-TTDS-γGlu-γGlu-γGlu-Stearoyl])STFS[αMeK]RAK(Ac)-NH2 [Relaxin peptide analogue of SEQ ID NO: 7], for which the “EC50 (nM), OVCAR 5 cells (cAMP)” value came to 0.07 nM and the “EMax, OVCAR 5 cells (cAMP)” value turned out to be 95%.

In the case of Ac-LEGREKVRAK(Ac)I[Aib][Aib]EGK([TTDS-TTDS-TTDS-γGlu-γGlu-γGlu-Palmitoyl])SKFS[Aib]RKK(Ac)-NH2 [Relaxin peptide analogue of SEQ ID NO: 79], the “EC50 (nM), OVCAR 5 cells (cAMP)” value turned out to be 0.45 nM and the “EMax, OVCAR 5 cells (cAMP)” value is 95%.

With Ac-LEGREKVRAK(Ac)I[Aib]IEGK([TTDS-TTDS-TTDS-γGlu-γGlu-γGlu-Palmitoyl])STWS[Aib]RKK(Ac)-NH2 [Relaxin peptide analogue of SEQ ID NO: 70], the “EC50 (nM), OVCAR 5 cells (cAMP)” value came out at 1.34 nM and the “EMax, OVCAR 5 cells (cAMP)” value turned out to be 94%.

For the molecule Ac-LEGRERVRAK(Ac)I[Aib][Aib]EGK([TTDS-TTDS-TTDS-TTDS-γGlu-γGlu-γGlu-Palmitoyl])STWS[Aib]RRK(Ac)-NH2 [Relaxin peptide analogue of SEQ ID NO: 75], the “EC50 (nM), OVCAR 5 cells (cAMP)” value came out at 0.19 nM and the “EMax, OVCAR 5 cells (cAMP)” value was determined as 97%.

With Ac-LEGREKVRAK(Ac)I[Aib][Aib]EGK([TTDS-TTDS-TTDS-γGlu-γGlu-γGlu-Palmitoyl])STWK(Ac)[Aib]RAK(Ac)-NH2 [Relaxin peptide analogue of SEQ ID NO: 66], the “EC50 (nM), OVCAR 5 cells (cAMP)” value was 6.31 nM and the “EMax, OVCAR 5 cells (cAMP)” value amounted to 93%.

For Ac-LEGREKVRAK(Ac)I[Aib][Aib]EGK([TTDS-TTDS-γGlu-γGlu-γGlu-Stearoyl])STFS[Aib]RKK(Ac)-NH2 [Relaxin peptide analogue of SEQ ID NO: 60], the “EC50 (nM), OVCAR 5 cells (cAMP)” value amounted to 0.15 nM and the “EMax, OVCAR 5 cells (cAMP)” value was 95%.

In the case of Ac-LEGREKVRAK(Ac)I[Aib][Aib]EGK([TTDS-TTDS-TTDS-γGlu-γGlu-γGlu-Palmitoyl])STWS[Aib]RK(Ac)R-NH2 [Relaxin peptide analogue of SEQ ID NO: 69], the “EC50 (nM), OVCAR 5 cells (cAMP)” value was 0.78 nM and the “EMax, OVCAR 5 cells (cAMP)” value worked out at 97%.

Consider Ac-LEGREKVRAK(Ac)I[Aib]IEGK([TTDS-TTDS-TTDS-TTDS-γGlu-γGlu-γGlu-Palmitoyl])STWS[Aib]RKK(Ac)-NH2 [Relaxin peptide analogue of SEQ ID NO: 74], for which the “EC50 (nM), OVCAR 5 cells (cAMP)” value is 0.54 nM and the “EMax, OVCAR 5 cells (cAMP)” value amounted to 94%.

For the molecule Ac-LEGRERVRAK(Ac)I[Aib][Aib]EGK([TTDS-TTDS-TTDS-TTDS-γGlu-γGlu-γGlu-Palmitoyl])STFS[Aib]RRK(Ac)-NH2 [Relaxin peptide analogue of SEQ ID NO: 77], the “EC50 (nM), OVCAR 5 cells (cAMP)” value stood at 0.11 nM and the “EMax, OVCAR 5 cells (cAMP)” value is 98%.

Turning to Ac-LEGREKVRAK(Ac)I[Aib][Aib]EGK([TTDS-TTDS-TTDS-γGlu-γGlu-γGlu-Palmitoyl])STF[Aib]RRAK(Ac)-NH2 [Relaxin peptide analogue of SEQ ID NO: 72], the “EC50 (nM), OVCAR 5 cells (cAMP)” value came out at 0.56 nM and the “EMax, OVCAR 5 cells (cAMP)” value is 91%.

Consider Ac-LEGRERVRAK(Ac)I[Aib][Aib]EGK([TTDS-TTDS-TTDS-γGlu-γGlu-γGlu-Palmitoyl])STFS[Aib]RRK(Ac)-NH2 [Relaxin peptide analogue of SEQ ID NO: 76], for which the “EC50 (nM), OVCAR 5 cells (cAMP)” value came to 0.18 nM and the “EMax, OVCAR 5 cells (cAMP)” value came out at 96%.

For Ac-LEGREKVRAK(Ac)I[Aib][Aib]EGK([TTDS-TTDS-TTDS-TTDS-γGlu-γGlu-γGlu-Palmitoyl])STFS[αMeK]RAK(Ac)-NH2 [Relaxin peptide analogue of SEQ ID NO: 78], the “EC50 (nM), OVCAR 5 cells (cAMP)” value stood at 0.18 nM and the “EMax, OVCAR 5 cells (cAMP)” value is 99%.

In the case of Ac-LEGREKVRAK(Ac)I[Aib][Aib]EGK([TTDS-TTDS-TTDS-γGlu-γGlu-γGlu-Palmitoyl])STWS[Aib]RKK(Ac)-NH2 [Relaxin peptide analogue of SEQ ID NO: 1], the “EC50 (nM), OVCAR 5 cells (cAMP)” value was 1.5 nM and the “EMax, OVCAR 5 cells (cAMP)” value came to 99%.
